Source: publication PMC2805716, “Critical Structural and Functional Roles for the N-Terminal Insertion Sequence in Surfactant Protein B Analogs” (PLoS ONE, 2010)

How the values were obtained:
[1] = ESR, ref [30], cited from earlier work
Text: Although the “10 nsec” MD simulation of dimer S-MB provides a reasonable framework to account for our SDS-PAGE and SPR results (Figs. 8 and 10), it is worthwhile to consider other structural models by which the N-terminal insertion sequence may promote the self-association of S-MB. One possible alternative is that oligomeric S-MB may be due to the N-terminal sequence (residues 1-7) forming β-sheet. The N-terminal SP-B(1–9) (Fig. 2) was earlier proposed to act as a ‘biochemical Velcro®,’ facilitating in vivo either the aggregation of SP-B or the interactions of SP-B with SP-C [50]. In support ...

[2] = lipid monolayers containing palmitic acid; ref [31], [32]; cited from earlier work
Text: (§1) Previous structural and functional studies with synthetic peptides representing the N- and C-terminal regions of SP-B further support the hypothesis that these charged amphipathic helices participate in surfactant activities. […] The cationic N-terminus of SP-B may here interact with anionic lipids to remove the driving force for lipid squeeze-out from the surface film, [32]. In additional studies, SP-B(1–25 ...

[3] = system: surfactant-deficient animal models; conditions: ref [34]–[37]; cited from earlier work
Text: as §1

[4] = Captive bubble surfactometry, dynamic surface activity; type: physicochemical; conditions: for minimum surface tension: 1.5 mol% in synthetic lipids 16:10:6:1:2 (weight) DPPC:POPC:POPG:POPE:cholesterol, 20 cycles/min, ten cycles, 37°C, n = 4
Description: The captive bubble surfactometer used here was a fully-computerized version of that described by Schurch and co-workers [79]–[81]. In brief, the sample chamber of the apparatus was cut from high-quality cylindrical glass tubing (10 mm inner diameter). A Teflon® piston with a tight O-ring seal was fitted into the glass tubing from the top end, with a plug of buffered 1% agarose gel inserted between the piston and the surfactant solution that was added through a stainless steel port from the other end of the sample chamber. The chamber and piston were vertically mounted in a steel rack, the height of which was regulated by a precision micrometer gear. In a typical experiment, the chamber was filled with a buffered salt solution (140 mM NaCl, 10 mM HEPES, 2.5 mM CaCl2, pH 6.9) containing 10% sucrose. One µl of surfactant solution containing 35 µg of lipid was added to this subphase, which was stirred by a small magnetic bar at 37°C. The subphase volume in the sample chamber averaged 0.7 ml (0.5–1 ml), resulting in a final average surfactant lipid concentration of 50 µg/ml (35–75 µg/ml). An air bubble approximately 7 mm in diameter (∼200 µl in volume) was then introduced within the sample chamber and subjected to cyclic volume (surface area) changes by systematically varying the height of the steel rack following a 5 min pause to allow adsorption to the air-water interface. The ionic composition of the buffered agarose plug minimized bubble adhesion to the plug during cycling, so that an uninterrupted bubble interface was maintained. […] Bubble images were continuously monitored during compression-decompression using a digital video camera (PULNIX Model TM-200, Pulmix America Inc, Sunnyvale, CA) and a professional video recorder (Panasonic AG-1980P, Secaucus, NJ) coupled to a computer with an Intel Pentium 4 processor. […] Bubble areas and volumes were calculated by an original algorithm relating bubble height and diameter to areas of revolution, and bubble surface tension was determined by the method of Malcolm and Elliot. […]

[5] = system: ventilated rats with ARDS induced by in vivo lavage; assay: Ventilated lung-lavaged rat model of ARDS; parameters: species or system Sprague-Dawley rats; conditions: n = 8–10; for relative order of pulmonary activity (oxygenation and compliance): 90 min after intratracheal 100 mg/kg surfactant; for arterial oxygenation (PaO2) / dynamic lung compliance: synthetic lipids +1.5 mol% peptide, 90 min; for arterial oxygenation (PaO2): 100% oxygen
Description: Animal experiments were performed under established protocols approved by the Animal Care and Use Committee at the Los Angeles Biomedical Research Institute at Harbor-UCLA Medical Center. Anesthesia, surgery, lavage, ventilation, and monitoring methods used have been detailed previously [35]–[37]. Briefly, adult male Sprague-Dawley rats weighing 200–225 g were anesthetized with 35 mg/kg pentobarbital sodium and 80 mg/kg ketamine by intraperitoneal injection, intubated, and ventilated with a rodent ventilator (Harvard Apparatus, South Natick, MA) with 100% oxygen, a tidal volume of 7.5 ml/kg and a rate of 60/min. An arterial line was placed in the abdominal aorta for measurements of arterial blood pressure and blood gases. Rats were paralyzed with 1 mg/kg pancuronium bromide intravenously. Only animals with PaO2 values >400 torr while ventilated with 100% oxygen and with normal blood pressure values were included in the experiments. Airway pressures were measured with a pressure transducer (Gould Inc., Cleveland, OH) and tidal volume with a pneumotachometer (Validyne, Northridge, CA) connected to a multi-channel recorder (Gould Inc., Cleveland, OH). The lungs were lavaged 8–12 times with 8 ml of pre-warmed 0.9% NaCl. After the PaO2 in 100% oxygen had reached stable values of <100 torr, the rats were treated with 100 mg/kg of experimental surfactant by intratracheal instillation. Arterial blood gases, tidal volume and airway pressures were determined at 15 min intervals throughout each experiment. Dynamic lung compliance was calculated by dividing tidal volume/kg body weight by changes in airway pressure (peak inspiratory pressure minus positive end-expiratory pressure) (mL/kg/cmH2O). Ninety minutes after surfactant instillation, rats were killed with 200 mg/kg pentobarbital sodium intravenously. Each treatment group consisted of 8–10 animals.

[6] = target: the molecule itself; assay: SDS-PAGE; 4 µg peptide in 8 µl buffer (50 mM MOPS, 50 mM Tris, pH 7.7, 0.1% SDS, 1 mM EDTA), neither heated nor reduced; 16% acrylamide gel; Coomassie blue and silver staining; molecular weight markers 2.5-16.9 kDa
[7] = target: T1, Cys-MB (Mini-B with a cysteine added to its N-terminus, chip-linked) (human); assay: SPR; Biacore 3000; Cys-MB or Cys-S-MB linked to a thiol chip; MB or S-MB at 1 µg peptide/ml in HBS-EP (10 mM Hepes, pH 7.4, 150 mM NaCl, 3 mM EDTA, 0.005% surfactant P20) flowed over at 50 µl/min, 37°C; constants from curve fitting at the one concentration; conditions: both partners purified
T1 construct: cysteine added to the N-terminus to link the peptide to the thiol Biacore chip; surfactant protein B (SP-B), human, residues 8-25; numbers count on: the mature protein (79 residues); surfactant protein B (SP-B), human, residues 63-78; Immobilised on the SPR chip; also called chipped MB; N-terminal Cys-MB
T1 chain: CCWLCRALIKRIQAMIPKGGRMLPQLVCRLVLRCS

[8] = target: T2, Cys-S-MB (Super Mini-B with a cysteine added to its N-terminus, chip-linked) (human); assay: as above; conditions: both partners purified
T2 construct: cysteine added to the N-terminus to link the peptide to the thiol Biacore chip; surfactant protein B (SP-B), human, residues 1-25; numbers count on: the mature protein (79 residues); surfactant protein B (SP-B), human, residues 63-78; Immobilised on the SPR chip; also called chipped S-MB; N-terminal Cys-S-MB
T2 chain: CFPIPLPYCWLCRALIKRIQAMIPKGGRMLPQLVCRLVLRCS

[9] = intratracheal 100 mg/kg surfactant

Molecule: SP-B(1–25): synthetic peptide based on the N-terminal domain of SP-B, residues 1–25 (FPIPLPYCWLCRALIKRIQAMIPKG; Pulmonary surfactant-associated protein B; UniProt P07988 201-225, looked up, fragment)
- aggregation ([1]; PBS, spin-labeled at Phe-1): primarily aggregated in PBS
- aggregation upon addition of SDS micelles ([1]; SDS micelles added): addition of SDS micelles rapidly dissociated these SP-B(1–25) aggregates
- collapse pressure of lipid monolayers [2]: increase the collapse pressure
- oxygenation and lung compliance [3]: improved oxygenation and lung compliance

Molecule: H-FPIPLPYC-NH2 [SP-B(1–8)]
- minimum surface tension [4]: 20 mN/m
- statistical comparison of minimum surface tension ([4]; after ten cycles, versus S-MB, MB and pig SP-B surfactants): significantly higher
- relative order of pulmonary activity (oxygenation and compliance) [5]: S-MB > MB > pig SP-B > SP-B(1–8)> lipids alone
- arterial oxygenation (PaO2) [5, 9]: minimal effects
- dynamic lung compliance [5, 9]: minimal effects

B1: pig SP-B: native pig SP-B, positive control (protein, UniProt P15782 1-79, looked up)
Pulmonary …: FPIPLPFCWLCRTLIKRIQAVVPKGVLLKAVAQVCHVVPLPVGGICQCLAERYIVICLNMLLDRTLPQLVCGLVLRCSS
modifications: Pulmonary surfactant-associated protein B
notes: native pig SP-B, positive control
- minimum surface tension [4]: < 3 mN/m
- relative order of pulmonary activity (oxygenation and compliance) [5]: S-MB > MB > pig SP-B > SP-B(1–8)> lipids alone
- arterial oxygenation (PaO2) [5, 9]: increased quickly
- dynamic lung compliance [5, 9]: increased quickly
- oxygenation and compliance versus SP-B1-8 and lipids only surfactants [5, 9]: consistently surpassed the performance of SP-B1-8 and lipids only surfactants (p<0.001)
- significance of differences in oxygenation and compliance between S-MB, MB and pig SP-B [5, 9]: statistically significant (p<0.05) starting at 30 min after surfactant instillation

B2: SP-B: 79 amino acids, lipid-associating lung protein, covalently linked homodimer (protein, UniProt P07988 201-279, looked up)
Pulmonary …: FPIPLPYCWLCRALIKRIQAMIPKGALAVAVAQVCRVVPLVAGGICQCLAERYSVILLDTLLGRMLPQLVCRLVLRCSM
modifications: Pulmonary surfactant-associated protein B
notes: 79 amino acids, lipid-associating lung protein, covalently linked homodimer
- collapse pressure of lipid monolayers [2]: increase the collapse pressure

B3: Super Mini-B (peptide)
chain: FPIPLPYCWLCRALIKRIQAMIPKGGRMLPQLVCRLVLRCS
notes: numbers count on: the mature protein (79 residues); surfactant protein B (SP-B), human, residues 63-78 (C-terminal helix region); the split into the two SP-B stretches follows the stated ranges (1-7 plus 8-25, and 63-78); Oxidised form with intramolecular disulfides Cys-8 to Cys-40 and Cys-11 to Cys-34; also called S-MB; SMB; source: synthetic peptide (Fmoc solid phase, HPLC-purified, …)
- stoichiometry N [6]: 2
- Kd [7]: 52.1 nM
- koff [7]: 0.00736 s⁻¹
- kon [7]: 141000 M⁻¹ s⁻¹
- Kd [8]: 20.1 nM
- koff [8]: 0.000901 s⁻¹
- kon [8]: 44700 M⁻¹ s⁻¹
